Measurements: patent US20140274782A1, “AFFINITY REAGENTS AND METHODS FOR DETECTION, PURIFICATION, AND PROTEOMIC ANALYSIS OF METHYLATED PROTEINS” (The Board of Trustees of the Leland Stanford Junior …, priority 2013, published 2014)

How the values were obtained:
Test in all cases: ProtoArray methylated with G9a SET domain
[1] = target: CTSZ, G9a-methylated (human) (UniProt Q9UBR2)
[2] = target: RAB7B, G9a-methylated (human) (UniProt Q96AH8)
[3] = target: CDK5RAP3, G9a-methylated (human) (UniProt Q96JB5)
[4] = target: ACSL4, G9a-methylated (human) (UniProt O60488)
[5] = target: SH3YL1 (clone MGC:12275), G9a-methylated (human) (UniProt Q96HL8)
[6] = target: CRYZL1, G9a-methylated (human) (UniProt O95825)
Chain of CRYZL1, G9a-methylated (human) (O95825 whole entry): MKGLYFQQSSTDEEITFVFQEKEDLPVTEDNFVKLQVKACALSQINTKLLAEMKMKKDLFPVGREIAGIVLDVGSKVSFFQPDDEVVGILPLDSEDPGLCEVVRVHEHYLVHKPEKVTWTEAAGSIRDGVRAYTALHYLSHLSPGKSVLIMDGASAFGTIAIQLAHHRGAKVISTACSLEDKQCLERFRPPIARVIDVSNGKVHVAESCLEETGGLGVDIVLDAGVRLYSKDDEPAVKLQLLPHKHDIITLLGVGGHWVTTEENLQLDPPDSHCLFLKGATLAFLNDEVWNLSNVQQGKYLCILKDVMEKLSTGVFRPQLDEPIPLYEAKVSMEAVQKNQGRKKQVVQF

[7] = target: LTC4S, G9a-methylated (human) (UniProt Q16873)
[8] = target: PPIL5, G9a-methylated (human) (UniProt Q96L50)
[9] = target: CLDN15, G9a-methylated (human) (UniProt P56746)
Chain of CLDN15, G9a-methylated (human) (P56746 whole entry): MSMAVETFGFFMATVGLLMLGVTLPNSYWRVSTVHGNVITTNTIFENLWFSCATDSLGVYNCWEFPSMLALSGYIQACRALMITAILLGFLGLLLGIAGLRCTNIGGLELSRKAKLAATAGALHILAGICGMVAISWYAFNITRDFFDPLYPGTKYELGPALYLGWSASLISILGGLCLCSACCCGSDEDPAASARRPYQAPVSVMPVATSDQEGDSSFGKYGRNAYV

[10] = target: HIC2, G9a-methylated (human) (UniProt Q96JB3)
[11] = target: GNPTAB, G9a-methylated (human) (UniProt Q3T906)
Chain of GNPTAB, G9a-methylated (human) (Q3T906 whole entry): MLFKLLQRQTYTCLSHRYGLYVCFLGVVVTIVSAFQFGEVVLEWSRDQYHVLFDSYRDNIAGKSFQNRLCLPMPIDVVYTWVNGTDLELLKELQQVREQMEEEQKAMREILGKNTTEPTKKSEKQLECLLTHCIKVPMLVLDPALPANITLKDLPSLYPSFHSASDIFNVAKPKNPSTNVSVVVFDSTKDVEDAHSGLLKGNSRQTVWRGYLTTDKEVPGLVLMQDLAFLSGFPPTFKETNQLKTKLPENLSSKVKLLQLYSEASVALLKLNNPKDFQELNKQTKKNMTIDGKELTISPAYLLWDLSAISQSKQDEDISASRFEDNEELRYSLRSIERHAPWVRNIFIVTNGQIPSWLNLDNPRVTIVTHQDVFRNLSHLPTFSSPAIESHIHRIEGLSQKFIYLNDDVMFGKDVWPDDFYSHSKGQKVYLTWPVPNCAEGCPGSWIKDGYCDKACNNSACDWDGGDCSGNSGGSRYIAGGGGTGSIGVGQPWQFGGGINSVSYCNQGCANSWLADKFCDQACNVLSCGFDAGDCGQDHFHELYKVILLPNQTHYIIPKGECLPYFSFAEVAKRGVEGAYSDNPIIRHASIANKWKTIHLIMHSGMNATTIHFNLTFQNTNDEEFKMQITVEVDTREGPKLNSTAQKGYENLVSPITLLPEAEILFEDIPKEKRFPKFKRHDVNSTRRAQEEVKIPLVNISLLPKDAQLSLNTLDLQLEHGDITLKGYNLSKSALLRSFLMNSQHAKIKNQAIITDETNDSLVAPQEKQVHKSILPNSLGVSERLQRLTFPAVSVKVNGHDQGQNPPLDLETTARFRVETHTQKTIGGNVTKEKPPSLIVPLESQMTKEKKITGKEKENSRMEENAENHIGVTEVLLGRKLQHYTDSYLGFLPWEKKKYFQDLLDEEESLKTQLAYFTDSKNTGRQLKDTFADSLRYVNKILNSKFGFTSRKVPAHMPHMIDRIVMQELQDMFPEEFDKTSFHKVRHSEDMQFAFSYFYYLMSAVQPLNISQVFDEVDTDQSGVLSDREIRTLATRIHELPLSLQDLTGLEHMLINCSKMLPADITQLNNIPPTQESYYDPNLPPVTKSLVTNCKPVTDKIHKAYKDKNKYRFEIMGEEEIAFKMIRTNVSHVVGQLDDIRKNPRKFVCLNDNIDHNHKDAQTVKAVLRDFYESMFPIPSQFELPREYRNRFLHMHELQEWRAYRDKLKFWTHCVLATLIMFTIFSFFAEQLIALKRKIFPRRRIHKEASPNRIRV

[12] = target: C12orf23, G9a-methylated (human) (UniProt Q8WUH6)
[13] = target: GHRL, G9a-methylated (human) (UniProt Q9UBU3)
[14] = target: FTL, G9a-methylated (human) (UniProt P02792)
Chain of FTL, G9a-methylated (human) (P02792 whole entry): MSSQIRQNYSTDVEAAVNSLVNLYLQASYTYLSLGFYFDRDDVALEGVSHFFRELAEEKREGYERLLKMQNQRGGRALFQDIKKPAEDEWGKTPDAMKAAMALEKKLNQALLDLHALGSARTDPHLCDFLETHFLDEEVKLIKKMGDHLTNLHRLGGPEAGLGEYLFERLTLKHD

[15] = target: PSMA8, G9a-methylated (human) (UniProt Q8TAA3)
Chain of PSMA8, G9a-methylated (human) (Q8TAA3 whole entry): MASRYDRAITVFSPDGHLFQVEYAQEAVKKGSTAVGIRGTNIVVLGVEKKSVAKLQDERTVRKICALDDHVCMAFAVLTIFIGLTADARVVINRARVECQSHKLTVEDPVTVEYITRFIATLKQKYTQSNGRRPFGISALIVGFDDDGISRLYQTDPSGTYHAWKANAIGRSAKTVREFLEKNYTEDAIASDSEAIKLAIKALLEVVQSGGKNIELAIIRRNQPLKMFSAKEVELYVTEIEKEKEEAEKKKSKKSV

[16] = target: GPX1, G9a-methylated (human) (UniProt P07203)
[17] = target: DYNC2LI1, G9a-methylated (human) (UniProt Q8TCX1)
[18] = target: GPR108, G9a-methylated (human) (UniProt Q9NPR9)
[19] = target: ZNF695, G9a-methylated (human) (UniProt Q8IW36)
[20] = target: CDK10, G9a-methylated (human) (UniProt Q15131)
[21] = target: GYPC, G9a-methylated (human) (UniProt P04921)
Chain of GYPC, G9a-methylated (human) (P04921 other isoform, or with tags, fused parts or gaps limits assumed): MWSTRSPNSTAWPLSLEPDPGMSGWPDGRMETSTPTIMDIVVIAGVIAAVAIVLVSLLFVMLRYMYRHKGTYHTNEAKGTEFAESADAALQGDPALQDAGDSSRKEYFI

[22] = target: CCL24, G9a-methylated (human) (UniProt O00175)
[23] = target: LYRM7, G9a-methylated (human) (UniProt Q5U5X0)
Chain of LYRM7, G9a-methylated (human) (Q5U5X0 whole entry): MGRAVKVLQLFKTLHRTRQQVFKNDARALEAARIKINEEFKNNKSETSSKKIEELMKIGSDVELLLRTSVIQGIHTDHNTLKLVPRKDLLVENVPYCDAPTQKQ

[24] = target: RASSF4, G9a-methylated (human) (UniProt Q9H2L5)
Chain of RASSF4, G9a-methylated (human) (Q9H2L5 whole entry): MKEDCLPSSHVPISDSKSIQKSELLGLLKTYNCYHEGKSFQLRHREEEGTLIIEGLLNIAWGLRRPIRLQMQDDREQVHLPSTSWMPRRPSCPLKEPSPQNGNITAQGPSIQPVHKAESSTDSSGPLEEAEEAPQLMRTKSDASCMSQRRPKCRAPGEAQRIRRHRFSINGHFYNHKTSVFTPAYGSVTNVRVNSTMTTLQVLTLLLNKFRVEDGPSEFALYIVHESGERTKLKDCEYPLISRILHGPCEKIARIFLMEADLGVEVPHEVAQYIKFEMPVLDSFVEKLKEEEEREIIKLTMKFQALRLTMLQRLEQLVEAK

[25] = target: NME7, G9a-methylated (human) (UniProt Q9Y5B8)
[26] = target: CALN1, G9a-methylated (human) (UniProt Q9BXU9)
[27] = target: KIFC1, G9a-methylated (human) (UniProt Q9BW19)
[28] = target: GFOD1, G9a-methylated (human) (UniProt Q9NXC2)
[29] = target: TMEM32, G9a-methylated (human) (UniProt Q8N4V1)
[30] = target: SMYD3, G9a-methylated (human) (UniProt Q9H7B4)
[31] = target: TMED5, G9a-methylated (human) (UniProt Q9Y3A6)
[32] = target: BHMT, G9a-methylated (human) (UniProt Q93088)
[33] = target: CRB3, G9a-methylated (human) (UniProt Q9BUF7)
Chain of CRB3, G9a-methylated (human) (Q9BUF7 27-120 limits assumed): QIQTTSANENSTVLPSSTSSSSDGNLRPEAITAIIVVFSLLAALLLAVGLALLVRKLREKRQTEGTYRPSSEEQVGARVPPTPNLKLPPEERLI

[34] = target: SSR4, G9a-methylated (human) (UniProt P51571)
Chain of SSR4, G9a-methylated (human) (P51571 24-173 limits assumed): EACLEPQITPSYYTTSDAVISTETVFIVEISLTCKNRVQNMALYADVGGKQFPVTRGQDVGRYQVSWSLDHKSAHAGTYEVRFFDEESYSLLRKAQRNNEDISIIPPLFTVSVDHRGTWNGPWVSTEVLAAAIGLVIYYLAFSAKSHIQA

[35] = target: TEAD4, G9a-methylated (human) (UniProt Q15561)
[36] = target: STK17B, G9a-methylated (human) (UniProt O94768)
[37] = target: SH3YL1 (hit 65), G9a-methylated (human) (UniProt Q96HL8)
[38] = target: C12orf62, G9a-methylated (human) (UniProt Q96I36)
Chain of C12orf62, G9a-methylated (human) (Q96I36 whole entry): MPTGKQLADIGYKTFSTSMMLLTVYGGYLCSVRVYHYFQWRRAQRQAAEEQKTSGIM

[39] = target: UBE2D2, G9a-methylated (human) (UniProt P62837)
Chain of UBE2D2, G9a-methylated (human) (P62837 whole entry): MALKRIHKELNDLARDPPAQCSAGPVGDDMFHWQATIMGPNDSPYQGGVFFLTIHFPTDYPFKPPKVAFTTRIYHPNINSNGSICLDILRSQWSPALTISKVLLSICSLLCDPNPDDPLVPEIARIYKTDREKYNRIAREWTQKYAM

[40] = target: CUTC, G9a-methylated (human) (UniProt Q9NTM9)
[41] = target: RHBDD1, G9a-methylated (human) (UniProt Q8TEB9)
Chain of RHBDD1, G9a-methylated (human) (Q8TEB9 whole entry): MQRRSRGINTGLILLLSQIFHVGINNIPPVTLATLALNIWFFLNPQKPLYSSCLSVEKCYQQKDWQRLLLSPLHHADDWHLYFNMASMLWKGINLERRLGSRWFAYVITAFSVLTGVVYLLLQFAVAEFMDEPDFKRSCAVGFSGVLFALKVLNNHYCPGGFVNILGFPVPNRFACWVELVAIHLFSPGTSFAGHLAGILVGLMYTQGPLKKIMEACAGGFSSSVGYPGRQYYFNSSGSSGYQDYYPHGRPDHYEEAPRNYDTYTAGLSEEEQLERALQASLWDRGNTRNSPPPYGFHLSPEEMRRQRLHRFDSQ

[42] = target: C2orf43, G9a-methylated (human) (UniProt Q9H6V9)
Chain of C2orf43, G9a-methylated (human) (Q9H6V9 whole entry): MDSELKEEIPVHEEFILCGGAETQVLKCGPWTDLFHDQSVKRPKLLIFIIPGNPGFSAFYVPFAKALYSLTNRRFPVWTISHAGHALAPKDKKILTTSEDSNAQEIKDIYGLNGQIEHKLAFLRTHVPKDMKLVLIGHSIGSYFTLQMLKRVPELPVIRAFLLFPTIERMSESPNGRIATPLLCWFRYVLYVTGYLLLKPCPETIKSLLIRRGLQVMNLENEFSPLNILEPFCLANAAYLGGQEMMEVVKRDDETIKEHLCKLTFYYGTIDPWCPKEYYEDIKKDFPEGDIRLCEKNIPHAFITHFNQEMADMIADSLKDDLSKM

[43] = target: PAEP, G9a-methylated (human) (UniProt P09466)
[44] = target: CNTD1, G9a-methylated (human) (UniProt Q8N815)
Chain of CNTD1, G9a-methylated (human) (Q8N815 whole entry): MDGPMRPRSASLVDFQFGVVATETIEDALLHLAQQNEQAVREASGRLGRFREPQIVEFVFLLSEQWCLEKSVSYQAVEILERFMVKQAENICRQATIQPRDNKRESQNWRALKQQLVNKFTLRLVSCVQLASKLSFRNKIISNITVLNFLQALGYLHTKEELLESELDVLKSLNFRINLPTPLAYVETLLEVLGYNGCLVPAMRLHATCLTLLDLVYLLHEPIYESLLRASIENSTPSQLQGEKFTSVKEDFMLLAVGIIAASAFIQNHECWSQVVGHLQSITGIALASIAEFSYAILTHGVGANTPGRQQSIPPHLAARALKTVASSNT

[45] = target: GGPS1, G9a-methylated (human) (UniProt O95749)
Chain of GGPS1, G9a-methylated (human) (O95749 whole entry): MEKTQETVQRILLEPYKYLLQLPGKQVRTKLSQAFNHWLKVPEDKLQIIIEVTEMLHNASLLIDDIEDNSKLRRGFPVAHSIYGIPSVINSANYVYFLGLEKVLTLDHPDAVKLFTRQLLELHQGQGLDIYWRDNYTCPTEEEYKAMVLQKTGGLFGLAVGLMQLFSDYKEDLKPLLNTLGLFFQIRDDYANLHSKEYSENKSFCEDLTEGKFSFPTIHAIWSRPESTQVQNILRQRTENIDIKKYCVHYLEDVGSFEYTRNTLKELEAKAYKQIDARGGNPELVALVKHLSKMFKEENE

Chain of CTSZ, G9a-methylated (human) (Q9UBR2 24-303 limits assumed): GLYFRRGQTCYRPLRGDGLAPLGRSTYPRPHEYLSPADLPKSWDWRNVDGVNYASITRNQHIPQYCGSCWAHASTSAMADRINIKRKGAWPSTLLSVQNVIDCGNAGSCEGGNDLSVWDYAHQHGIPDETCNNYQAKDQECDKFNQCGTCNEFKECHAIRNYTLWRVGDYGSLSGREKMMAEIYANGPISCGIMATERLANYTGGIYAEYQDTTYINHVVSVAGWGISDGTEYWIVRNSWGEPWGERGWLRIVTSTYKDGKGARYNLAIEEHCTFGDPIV

3× Flag-3×MBT (designed binder)
G9a Average SNR [1]: 13.6 | G9a Average SNR [2]: 12.7 | G9a Average SNR [3]: 13.8 | G9a Average SNR [4]: 13.5 | G9a Average SNR [5]: 12.9 | G9a Average SNR [6]: 11.2 | G9a Average SNR [7]: 14.1 | G9a Average SNR [8]: 11.8 | G9a Average SNR [9]: 25 | G9a Average SNR [10]: 16.7 | G9a Average SNR [11]: 16.5 | G9a Average SNR [12]: 12.7 | G9a Average SNR [13]: 24.5 | G9a Average SNR [14]: 34.2 | G9a Average SNR [15]: 13.1 | G9a Average SNR [16]: 15.8 | G9a Average SNR [17]: 11.6 | G9a Average SNR [18]: 19.2 | G9a Average SNR [19]: 20.3 | G9a Average SNR [20]: 13.6 | G9a Average SNR [21]: 13.4 | G9a Average SNR [22]: 34.5 | G9a Average SNR [23]: 17.2 | G9a Average SNR [24]: 15.7 | G9a Average SNR [25]: 14.1 | G9a Average SNR [26]: 18.6 | G9a Average SNR [27]: 63.2 | G9a Average SNR [28]: 16.4 | G9a Average SNR [29]: 13.6 | G9a Average SNR [30]: 17.6 | G9a Average SNR [31]: 15.1 | G9a Average SNR [32]: 16.6 | G9a Average SNR [33]: 15.2 | G9a Average SNR [34]: 14.4 | G9a Average SNR [35]: 16.9 | G9a Average SNR [36]: 14.4 | G9a Average SNR [37]: 16.5 | G9a Average SNR [38]: 14.9 | G9a Average SNR [39]: 37.2 | G9a Average SNR [40]: 13.6 | G9a Average SNR [41]: 12.3 | G9a Average SNR [42]: 11.9 | G9a Average SNR [43]: 17.5 | G9a Average SNR [44]: 12.7 | G9a Average SNR [45]: 12.3
